Measurements reported in US20230036213A1.

Biological target: HLA-DR (human)
Assay: cell-based or functional assay

GEFRYYPNIIAKGVG [HPIV3 Matrix Epitope Peptide 84 (…)]
IFN-gamma production, decrease in the presence of HLA-DR blocking antibodies: 32 to 80%
